# Laboratory results: the nanobody polyreactivity screen of Harvey et al. (2022)
# Assay: yeast display, Sf9 membrane polyspecificity reagent, FACS + sequencing; frameworks hold sequencing errors
# Summary of the method: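 Sorting gates, low and high (top ~1%), were placed on anti-HA fluorescence to track expression and on streptavidin fluorescence to track reagent binding. A clone's polyreactivity label is taken from the gate it came out of. The reagent was 10% biotinylated, detergent-solubilized Sf9 membrane, applied for 1 hour at 4 °C to galactose-induced yeast display cells.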
row,Sequence,polyreactivity (PSR sort gate)
1,QVQLVESGGGLVQAGGSLRLSCAASGSIFGFYAMGWYRQAPGKERELVAAITTGGSTYYADSVKGRFTISRDNAKNNVYFQMISLKPEDTAVYYCAKERWFPYERNDYWGQGTLVTVSS,low polyreactivity
2,QVQRVETGGGLVQAGGSLRLSSAASVLTFKWYAMGWYRQSPGKERELVAAISRDGSTYYGDSVKVRFTISRDNAKNTVYLQMNSLKPEDTAVYYCAADIWPSSLLADEYDYWGQGTQVTVSS,high polyreactivity
3,QVQLVESGGGLVQAGGSLRLSCAASGSILASYAMGWYRQAPGKERELVAAIRTSGDRTYYADSVKGRFTISRDNAKNTVYLQMNSLKPEDTAVYYCAATYRYRPYSYYQYYSWGQGTQVTVSS,high polyreactivity
4,QVQLEESGGGLVQAGGSLRLSCAASGNIFSLNGMGRYRQAPGKEREFVAAITWSVGSTYYADSVKGRFSISRDNAKKTVYLQMNSLKPEDTAVYYCAATVSDLYKNEYYYWGQGTQVTVSS,low polyreactivity
5,QVQLQERGSGLVQAGGSLRLTCAESGAIFPAYLMGWYRQPPGKERELVAGISYGSITYCADSVKGRFNIIRDNAKNTVYLQMNSLKPEDTAVKYCAVWRPGGDEYYYWGQGTQVTVSS,low polyreactivity
6,QVQLVESGGGLVQAGGRLRLSCAASGTIFPLNAMGWYRQAPGKERELVATISSGGSTYYADSVKGRFTISRDNAKNTVYLQMNSLKPEFTAVYYCAADSWVQFEYWGQGTQVTVSS,low polyreactivity
7,QVQHVESGGGLVQAGGSLRLSCAASGFTFRRYAMGWYRQAPGKERELVAAISINGGSTYYADSVKGRFTISRDNAMNTVYLQMNSLKPEDTAVYYCNKGSVRGEYDYWGQGTLVTVSS,high polyreactivity
8,QVQLVESGGGLVQAGGSLRFSCAASGRIFQYNAMGWYRQAPGKERELVASITSGVRTYYADSVKGRFTISRDNAKNTVYLQMNSLKPEDTAVYYCNAYSGGQYDYCGQGTQVTVSS,high polyreactivity
9,QVQLVESGGGLVQAGGSLRLSCAASGSTFVPNAMGWYRQAPGKERELVAALTFSGGTTYYADSVKGRFTISRDNAKNTVYLQMNSLKPEGTAVYYCAADYFSNLWWSGHAWRYYYWGQGTQVTVSS,low polyreactivity
10,QVQLVESGGGLVQAGGSLRLSCAASGSTLKYNAMGWYRQAPGKEREFVASITLSACRTYYADSVKGRFTISRDNAKNTVYLQMNSLKPEDTAVYYCAARRYFSYRYDYWGQGTQVTVSS,high polyreactivity
11,QVQLVESGGGLVQAGGSLRLSCAASGSTFNKYAMVWYRQAPGKERELVAAITGSGGRTYYADSVKGRFTISRDTAKNTVYLQMNSLKPEHTAVYYCNAGITHGYDYWGQGTQVSVSS,high polyreactivity
12,QVQLVESGGGLVQAAGSLRLSCAASGRIFRRYAMGWYRQAPGKERELVAAITNNGANTYYADSVKGRFTISRDNAKNTVYLQMNSLKPEDTAVYDCARKSYPGRPAYRYDYWGQGTQVTVSS,high polyreactivity
13,QVQLVESVGGLVQAGGSLRLSCAASGFIFSWYAMGWYRQAPGKERELVAAINSGGRTSYADSVKGRFTISRDNAKNTVYLQMNSLKPEDTAVYYCAAPVYYYNRARYSYDYWGQGTQVTVSS,high polyreactivity
14,QVQLVESGGGLVQEGGSLRLSCAASGITFSVYTMGRYRQAPGKERELVASITRTGGSTYYADSVKGRFTISRDNAKNTVYLQMNSLNPEDTAVYYCAARRTVVTGRYYWGQGTQVTVSS,high polyreactivity
15,QVQLVESGGGLVQAGGSLRLSCAASGRIFFNSAMGWYRQAPGKERELVAAIRGGGSTYADSVKGRFTISRDNAKNTVYLQMNSLKPEDTAVYYCAARYSGSPYHTRRYYYWGQGTQVTVSS,high polyreactivity
16,QVQLVESGGGLVQAGGSLRLSCAASGSTFRPYAMGWYRQAPGKERELVAAISWSGGRTYYADSVKGRFTISRDNAKNNVYLQMNSLKPEDTAVYYCNRAGRQPKNTYDYWGQGTQVTVSS,high polyreactivity
17,QVQLVESGGGLVQAGGSLRLSCAASGSTFDYYTMGWYRQAPGKERELVAAITSGGSTYYADSVKGRFTISRDNAKNTVFLQMNSLKPEDTAVYYCAAGYIWFRKFQFDYWGQGTQVTVSS,high polyreactivity
18,QVQLVESGGGLVQAGGSLRLSCAATGSTFVYYALGWYRPAPGKERELVAAITASGGGTYYADSVKGRFTISRDNAKNTVYLQMNSLKPEDTAVYYCNRGYDYWGQGTQVTGSS,low polyreactivity
19,QVQLVESGGGLVQAGGSLRLSCAASGRIFYFNTMGWYRQAPGKERELVAAITGSGSSTYYADSVKGRFTISRDNAKNTVYLQMNSLKPEDTAVYYCAAYGFSRNGYTYGHDDWGQGTQVTVSS,low polyreactivity
20,QVQLVESGGGLVQAGGSLRLSCAASGRIFSYNARGWYRQAPGKEWELVAAISSGGSTYYADSVKGRFTISRDNAKKTVYLQMNSLKPEDTAVYYCAADRRYYSDLYYWGQGTQVTVSS,low polyreactivity
21,QVQLVESGGGLVQAGGSLRLSCAASRLTFSYYAMGWYRQAPGKERELVAAISERGGSTYYADSVKGRFTISRDNAKNTVYLQMNSLKPEDTAVYYCAADFVYGTRDDSWGQGTQVTVSS,high polyreactivity

row,Sequence,polyreactivity (PSR sort gate)
1,QVQLVESGGVLVQAGGSLRLSCAASGGIFGNYAMGWYRQAPGKERELVAVIDSSDGSTHYADSVKGRFTISRDNAKITVYLQMNSLKPEDTALYYCATQGFWNYWTFDYWGQGTQVTVSS,low polyreactivity
2,QVQLVESGGGLLQAGGSLRLSCAASGYTSSRYAMGWYRQAPGKESELLAAISGTGGSTNYADSVKGRFTISRDNAKNTVYLQMNRLKPEDSAVYYCATRSFGAGYVGVRYYYWGQATQVTVSS,high polyreactivity
3,QVQLVESGGGLVQAGGSLRLSCAASGFTFYAYAMGWYRPAPGKERELVAGISWSGGSTYYADSVKGRFTISRDNAKNTVYLQMNSLKPEDTAVYYCAAYSIAELWEYYYWGQGTQVTVSS,low polyreactivity
4,QVQLVESGGGLVQAGGSLRLSCAASGRIFLKYTLGWYRQAPGKERELVAAISRGGSTYYADSVKGRFTISRDNAKNTVYLQMNSLKPEDSAVYYCAATSYRRTGYNYWGQGTQVTVSS,high polyreactivity
5,QVQLVESGGGLVQAGGSLGLSCAASGSILYYNAMGWYRQAPGKERELVAAISWSGGSKYDADSVKGRFTISRDNAKNTVYLQMNSQKPEDTAVYYCLYYRSDEMDYWGQGTQVTVSS,high polyreactivity
6,QVQLVESGGGLVQAGGSLRLSCAASGRIFAVYAMGWYRQAPGKERELVAAINWNDGSTYYADSVKGRFTISRDNAKNTVYLQMNSLKPEDTAVYYCAARALSRSVYGKSGYKYGYWGQGTQVTVSS,high polyreactivity
7,QVQLVESGVGLDQAGGSLRLSCAASGSIFRRYAMGWYRQAHGKERELVAAISSNGGSTYYADSVKGRFTISRDNAKNTVYLQMNSLKPEDTAVYYCTAPPLYRDEYWGQGTQVTVAS,high polyreactivity
8,QVQLVESGGGLVQAGGSLRLSCAASGLTFRKNAMGWYRQAPGKERELVAAISFSGDRTYYADSVKGRFTISRDNAKNTVYLQMNSLKPEDTAVYYCAARSGVPGLEYDYWGQGTQVTVSS,low polyreactivity
9,QVQLVESGGGLVQEGGSLRLSCAASGLTFLNNAMGWYRPAPGKERELVAAISDGGSTNYADSVKGRFTISRDNAKNTVYLQMNSMKRDDTAVYYCAAVYTSASYGSWGQGTQVTVSS,low polyreactivity
10,QVQLVESGGGLVQAGGSLRFSCAAYGSISRYYAMGWYRLAPGKERELVAAISSNGGSTYYADSVKGRFTISRDNAKNTVYLQMNSLKPEDTAVDDCAAESDYFRYDYWGQGTQVTVSS,high polyreactivity
11,QVQLVESGGGLVQAGGSLRLSCAASGSTFTYYAMGWYRQAPGKERELVAAISRSGGNTYYADSVKGRFTISRDNAKNTVYLQMNSLKPEDTAVYYCAAYRQVYGFDYWGQGTQVTVSS,high polyreactivity
12,QVQLVESGGGLVQAGGSLRLSCAASGSIFGYYAMGWYRQAPGKERELVAAIRVSGGRTYYADSVKGRFTISRDNAKNTVYLQMNSLKPEDTAVYYCAKSLIPAYEYWGQGTQVTVSS,high polyreactivity
13,HVQLVESGRGLVQAGGSLRLSCAASGSTFPFYDRGWYRQAPGKERQLVDAITASVGNTYYADSVKGRFTISRDNAKNTVYLQMNSLKPEDTAVYYCNADELYTYIPDFDYWGQGSQVTVSS,low polyreactivity
14,QVQLVESGGGLVQAGVSLRLSCAASGLTLRPYTMGWYRQAPGKERELVAAITGRGGRTHYADSVKGRFTISRDNAKNTVYLQMNSLKPEDTAVYYCAAAARVYVKVGYNYWGQGTQVTVSS,high polyreactivity
15,QVHLVESVGGLVQAGGSLRLSCAASGSIFYYNAMGWYRQAPGKERELVAAISSGGSTNYADSVKGRFTISRDNAKNTVYLQMNSLKPEDTAVYYCATGWSWYHPDYDYWGQGTQVTVSS,low polyreactivity
16,QVQLVESGGGLVQAGGSLRLSCAASGFTIDAYAMGWYRQAPGKDRELVAAISGSGGSTYYADSVKGRFTISRDNAKNTVYLQMNSLKPEDTALYYCAKDPGPYDYDYWGQGTQVTVSS,low polyreactivity
17,QGQLVESGGGLVQAGGSLRLSCAASGSTFRNYAMGWYRQAPGKERELVAAISGSGGRTNYADSVKGRFTISRDNAKNTVYLQMNSLKPEDTAVYYCNARFPDWALSEISLSTTYGYWGQGTQVTVSS,low polyreactivity
18,QVQLVESGGGLVQAGGSLRLSCAASGIIFYRYAMGWYRQAPGKERELVAAISGSGGRTYYADSVKGRFTISRDNAKNTVYLQMNSLKPEDTAVYYCARVYDIYHYFYAYGGDYWGQGTQVTVSS,high polyreactivity
19,QVQLVESGGGLVQAGGSLRLSCAASGLTFPGYAMGWYRQAPVKERELVAAISYSSGSTYYADSVKGRFTISRDNAKNTVYLQMNILKQEDTEVYYCNRVYRFRGITELDYWGQGTQVTVSS,high polyreactivity
20,QVHLVDSGGGLVQAGGSLRLSCPASGFIFGLYVMGCYRQSPGKERELVAAITTSVGSTYYADSVKGRFTISRDNAKNTVYLQMNSLKPEDTSVYYCAKTSGTIDYDYWGQGTQVTVSS,low polyreactivity
